Results on ten molecules are retold here after US20180339059A1 (DINGFU BIOTARGET, published 2018).

A word on the EC50: it is the midpoint of the concentration-response curve. Usually Kd stands for a measure of binding affinity in units of concentration. Low values mean tighter binding, high ones weaker binding. One may read the koff as the rate constant with which the complex falls apart. One may read the kon as the rate constant with which the complex forms. A higher kon goes with faster complex formation.

Changes are numbered by the printed parent chain. Read-outs that look alike come from different tables or passages of the source.

Experiment [1] concerns the target T1, hOX40-muFc (human; mouse, UniProt P43489 29-216).
T1 construct: range 1-216; Expressed in HEK293, purified on Protein A; also called recombinant human OX40; not shown: mouse IgG1-Fc (muFc) domain, residue 98 to residue 324 of P01868
T1 sequence (looked up): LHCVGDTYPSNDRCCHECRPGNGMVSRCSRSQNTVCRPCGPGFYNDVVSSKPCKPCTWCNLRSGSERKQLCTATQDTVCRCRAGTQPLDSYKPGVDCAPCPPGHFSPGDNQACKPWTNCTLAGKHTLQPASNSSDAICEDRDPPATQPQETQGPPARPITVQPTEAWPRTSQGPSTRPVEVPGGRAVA
Description: ELISA, hOX40-muFc coated at 2 µg/ml, goat anti-human IgG-HRP; column C of the drawn 4-P fit table y=(A-D)/(1+(x/C)^B)+D; the axis prints no unit, ng/ml is from paragraph 210. The procedure:
(§1) hOX40-muFc was diluted to 2 μg/ml with coating buffer (50 mM Na₂CO₃, NaHCO₃ pH 9.6), 100 μL/well, 4° C. overnight. After washing, blocking was performed using 3% BSA-PBS for 1 h at 37° C. The anti-hOX40 antibodies were diluted respectively from 2000 ng/ml and was diluted 2-fold in a total of 11 concentrations, with the diluent (1% BSA-PBS) as a control, and incubated at 37° C. for 2 h. Goat anti-human IgG-HRP conjugated was added and incubated for 1 h at 37° C. Soluble one-component TMB substrate developer solution is added, and the developing was performed in dark at room temperature for 5-10 min. 2N H₂SO₄ 50 μL/well was added to terminate the color development reaction. The OD of the obtained solution was determined at 450 nm-650 nm on MD SpectraMax Plus 384 microplate reader and SoftMaxPro v5.4 was used for processing data, making graphs and analysis. […] It can be seen from FIG. 5 and FIG. 6 that all the above variants of anti-OX40 21 # mAb can bind to OX40 and the affinity of the in vitro affinity-matured anti-OX40 21 # VHnew-L80 mAb and anti-OX40 21#H96-L80 mAb increased approximately two times compared to anti-OX40 21# mAb.
Background: An ELISA detects its analyte on a solid surface through an enzyme-linked reagent.

The target of experiment [2] is T2, hCD137-EGFP on HEK293 cells (human, UniProt Q07011 24-255).
T2 construct: pcDNA4-hCD137-EGFP transfected into HEK293; not shown: EGFP, C5MKY7
Briefly: flow cytometry on HEK293 cells expressing hCD137-EGFP, anti-hIg-PE. Here is the method:
(§2) HEK293 cells expressing hOX40-EGFP, hCD137-EGFP and hCD27-EGFP obtained in Embodiment 1 were resuspended in 0.5% PBS-BSA Buffer and anti-hOX40 mAb protein was added and the mixture was incubated on ice for 20 min. After washing, secondary antibody anti-hlg-PE (eBioscience) was added, and the mixture was incubated on ice for 20 min. After washing, the cells were resuspended in 500 μl 0.5% PBS-BSA Buffer and detected by flow cytometry.
Background: A flow cytometer gives signals particle by particle.

Experiment [3] deals with T3, hCD27-EGFP on HEK293 cells (human, UniProt P26842 20-260).
T3 construct: pcDNA4-hCD27-EGFP transfected into HEK293; not shown: EGFP, C5MKY7
T3 sequence (looked up): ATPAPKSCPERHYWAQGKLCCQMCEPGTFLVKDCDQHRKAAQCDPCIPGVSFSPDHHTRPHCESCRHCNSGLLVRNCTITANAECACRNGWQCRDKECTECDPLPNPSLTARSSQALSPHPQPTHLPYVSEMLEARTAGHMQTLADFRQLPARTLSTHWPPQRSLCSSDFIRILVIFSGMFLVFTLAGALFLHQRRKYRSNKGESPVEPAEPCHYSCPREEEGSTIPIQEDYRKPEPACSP
Description: flow cytometry on HEK293 cells expressing hCD27-EGFP, anti-hIg-PE. The procedure:
as §2

The target of experiment [4] is T1, hOX40-muFc. Briefly: SPR, BIAcore X100; antibody captured by anti-human Fc on CM5 chip, OX40-muFc as analyte, 1:1 model. The procedure: (§3) The binding kinetics of anti-hOX40 antibody to recombinant human OX40 was measured by surface plasmon resonance (SRP) method using a BIAcore X100 instrument. Anti-human Fc antibody (no cross-identification against the mouse Fc) was conjugated on CM5 chip, the test antibody was diluted to 5 nM with running buffer and captured as a ligand by the anti-human Fc antibody on the CM5 chip. […] The injection time is 180 s, the dissociation time is 1800 s and the regeneration time is 60 s. The running buffer is HBS-EP+, and the regeneration buffer is 10 mM glycine-HCl (pH 2.0). The association rate (kₒₙ) and dissociation rate (koff) were calculated using a simple one-to-one Languir binding model (BIAcore Evaluation Software version 3.2). The equilibrium dissociation constant (kD) is calculated as the ratio koff/kₒₙ. It can be seen from Table 3 that the affinity of the affinity-matured anti-OX40 21 # H96-L80 mAb is increased approximately two times.
A general note: In SPR one partner is held on a chip, and binding of the other changes the refractive index at the surface.

For experiment [5], the target named is T1, hOX40-muFc. Briefly: ELISA, hOX40-muFc coated at 2 µg/ml, goat anti-human IgG-HRP; column C of the drawn 4-P fit table y=(A-D)/(1+(x/C)^B)+D; the axis prints no unit, ng/ml is from paragraph 210. Here is the method:
as §1
This is another data set of the same source.

The target of experiment [6] is T1, hOX40-muFc. The description is as above. The procedure:
as §1
This is another data set of the same source.

The target in experiment [7] is T1, hOX40-muFc. Description: SPR, BIAcore X100; antibody captured by anti-human Fc on CM5 chip, OX40-muFc as analyte. Here is the method:
as §3

The target in experiment [8] is T1, hOX40-muFc. Description: ELISA, hOX40-muFc coated at 2 µg/ml, goat anti-human IgG-HRP. The procedure: as §1

T2 sequence (Q07011 24-255): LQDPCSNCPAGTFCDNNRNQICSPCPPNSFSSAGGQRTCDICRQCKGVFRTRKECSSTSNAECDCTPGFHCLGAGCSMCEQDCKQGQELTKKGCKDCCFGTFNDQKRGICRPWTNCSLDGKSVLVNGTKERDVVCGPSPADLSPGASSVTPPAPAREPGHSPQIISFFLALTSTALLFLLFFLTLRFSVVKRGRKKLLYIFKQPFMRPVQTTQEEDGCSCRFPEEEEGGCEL

B1: O3 scFv (scFv)
scFv: QVQLQQWGAGLLKPSETLSLTCGFNGEYFTDYFWTWVRQPPGEALEWLALIYWDDDERYSPSLKNRLIITKDISKNQVVLTMTHMEPADTGTYYCARWGGSLMNAFDVWGPGTMVTVSSGGGGSGGGGSGGGGSQSALIQPASVSGSPGQSITISCTGTSSDVGGYNYVSWYQRHPGKAPRLMIYDVTKRPSGVSNRFSGSKSGNTASLTISGLQAEDEADYYCSSYTSSSIAVFGGGTQLTVL
notes: Purified as scFv fused with human IgG1-Fc, expressed in HEK293; also called anti-hOX40 scFv O3; not shown: human IgG1-Fc (hFc) domain, residues 104-330 of P01857
In the experiment with hOX40-muFc [1], B1 returned an EC50 of 0.309 µg/mL.

B2: O19 mAb (antibody, IgG4, V domains shown)
VH: QVQLVESEGGLVQPGGSLRLSCAASRFTFSNYWMSWVRQAPGKGLEWVANIKQDGSEKYYMDSVKGRFTISRDNAKNSLFLQMNTLRAEDTAMYYCTRVSFGVPTYDDFWRSYATPAWYFDFWGRGTLVTVSS
VL: QSALIQPASVSGSPGQSITISCTGISSDDGYYKYVSWYQQYPGKAPKLMIYDVSKRPSGISFRFSGSKSGNTASLTISGLQAEDEADYYCSSYTSNMTPYVFGTGTKVTVL
notes: IgG4, lambda; expressed in HEK293; not shown: human immunoglobulin gamma4 (IgG4) constant region, P01861; human immunoglobulin lambda light chain constant region, A0M8Q6
For B2, the binding result in experiment [2] and in experiment [3] was “no binding” each time.

B3: O21 scFv (scFv)
scFv: QVQLQQSGPGLVKPSQTLSLTCAISGDSVSSNSVSWDWIRQSPSRGLEWLGRTYYRSKWYNEYAVSVESRITINPDTSKNQFSLQLNSVTPEDTAIYFCVRNNYFFDLWGRGTLVTVSSGGGGSGGGGSGGGGSEIVLTQSPATLSLSPGERATLSCRASQSVSSYLAWYQQKPGQAPRLLIYDASDRATGIPARFSGSGSGTDFTLTISSLEPEDFAVYYCQLRSNWPPGYTFGQGTKVEIK
notes: Purified as scFv fused with human IgG1-Fc; also called anti-OX40 21# scFv; not shown: human IgG1-Fc (hFc) domain, residues 104-330 of P01857
B3 gave an EC50 with hOX40-muFc [1] of 0.00949 µg/mL.

B4: O3 mAb (antibody, IgG4, V domains shown)
VH: QVQLQQWGAGLLKPSETLSLTCGFNGEYFTDYFWTWVRQPPGEALEWLALIYWDDDERYSPSLKNRLIITKDISKNQVVLTMTHMEPADTGTYYCARWGGSLMNAFDVWGPGTMVTVSS
VL: QSALIQPASVSGSPGQSITISCTGTSSDVGGYNYVSWYQRHPGKAPRLMIYDVTKRPSGVSNRFSGSKSGNTASLTISGLQAEDEADYYCSSYTSSSIAVFGGGTQLTVL
notes: IgG4, lambda; expressed in HEK293; also called 03 mAb; not shown: human immunoglobulin gamma4 (IgG4) constant region, P01861; human immunoglobulin lambda light chain constant region, A0M8Q6
Regarding B4, in the experiment with hOX40-muFc [4], the Kd is 1.38 nM, the dissociation rate constant (koff) turned out to be 0.000391 s⁻¹ and the association rate constant (kon) amounted to 284000 M⁻¹ s⁻¹. In the experiment with hOX40-muFc [1], this molecule had an EC50 of 0.0139 µg/mL.

B5: anti-OX40 21#H96 mAb (antibody, IgG4, V domains shown)
VH: QVQLQQSGPGLVKPSQTLSLTCAISGDSVSSNSVSWDWIRQSPSRGLEWLGRTYYRSKWYNEYAVSVESRITINPDTSKNQFSLQLNSVTPEDTAIYFCVRNDYFFDLWGRGTLVTVSS
VL: EIVLTQSPATLSLSPGERATLSCRASQSVSSYLAWYQQKPGQAPRLLIYDASDRATGIPARFSGSGSGTDFTLTISSLEPEDFAVYYCQLRSNWPPGYTFGQGTKVEIK
notes: Formatted as IgG according to Embodiment 3 (IgG4); also called H96 heavy chain mutant; not shown: human immunoglobulin gamma4 (IgG4) constant region, P01861; human immunoglobulin kappa light chain constant region, P01834
B5 gave a concentration for a half-maximal effect (EC50) with hOX40-muFc [5] of 0.046 µg/mL.

B6: O21 mAb (antibody, IgG4, V domains shown)
VH: B5 VH with D103N
VL: B5 VL
notes: also called 021 mAb; anti-OX40 21# mAb; not shown: human immunoglobulin gamma4 (IgG4) constant region, P01861; human immunoglobulin kappa light chain constant region, P01834
Take B6: the EC50 amounted to 0.0758 µg/mL with hOX40-muFc [5], 0.0298 µg/mL in the experiment with hOX40-muFc [6] and 0.0139 µg/mL with hOX40-muFc [1]. For the same molecule, binding with hOX40-muFc [4] was characterised by a dissociation constant (Kd) of 14.5 nM. Further, in the experiment with hOX40-muFc [4], the koff turned out to be 0.000608 s⁻¹. Moreover, the kon with hOX40-muFc [4] turned out to be 41800 M⁻¹ s⁻¹. Moreover, the binding result in experiment [2] and in experiment [3] was “no binding” throughout.

B7: anti-OX40 21#H28H33 mAb (antibody, IgG4, V domains shown)
VH: B5 VH with S28N, S33G, D103N
VL: B5 VL
notes: Formatted as IgG 'according to the method in Embodiment 3' (IgG4); not shown: human immunoglobulin gamma4 (IgG4) constant region, P01861; human immunoglobulin kappa light chain constant region, P01834
For the molecule B7, the EC50 in the experiment with hOX40-muFc [5] amounted to 0.0432 µg/mL.

B8: anti-OX40 21#H96-L80 mAb (antibody, V domains shown)
VH: B5 VH
VL: B5 VL with S30G, D53N, L90Q
notes: Formatted as IgG according to Embodiment 3 (IgG4); also called H96-L80 IgG4; not shown: human immunoglobulin gamma4 (IgG4) constant region, P01861; human immunoglobulin kappa light chain constant region, P01834
In the experiment with hOX40-muFc [4], B8 came in with a dissociation constant (Kd) of 7.9 nM, a dissociation rate constant (koff) of 0.000237 s⁻¹ and an on-rate constant (kon) of 30000 M⁻¹ s⁻¹. Further, the “fold increase of affinity (reference not given; O21 mAb by Table 3)” value in the experiment with hOX40-muFc [7] is ~2 times. Also, a half-maximal effect with hOX40-muFc [6] (EC50) was put at 0.0154 µg/mL. Also, the “fold increase of affinity compared to anti-OX40 21# mAb” value with hOX40-muFc [8] is ~2 times.

B9: anti-OX40 21#H65 mAb (antibody, IgG4, V domains shown)
VH: B5 VH with S69N, D103N
VL: B5 VL
notes: Formatted as IgG according to Embodiment 3 (IgG4); not shown: human immunoglobulin gamma4 (IgG4) constant region, P01861; human immunoglobulin kappa light chain constant region, P01834
On to B9, for which the EC50 in the experiment with hOX40-muFc [5] worked out at 0.0609 µg/mL.

B10: anti-OX40 21#VHnew-L80 mAb (antibody, IgG4, V domains shown)
VH: B5 VH with S33G, S69N
VL: B5 VL with S30G, D53N, L90Q
notes: as for B9
In the experiment with hOX40-muFc [4], B10 came in with a Kd of 10.3 nM, a dissociation rate constant (koff) of 0.000342 s⁻¹ and a kon of 33300 M⁻¹ s⁻¹. In addition, the half-maximal effective concentration (EC50) with hOX40-muFc [6] stood at 0.0134 µg/mL. Also, the “fold increase of affinity compared to anti-OX40 21# mAb” value with hOX40-muFc [8] is ~2 times.
